Experimental data taken from the nanobody polyreactivity screen of Harvey et al. (2022).

assay: yeast display, Sf9 membrane polyspecificity reagent, FACS + sequencing; frameworks hold sequencing errors
Method in brief: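 A synthetic nanobody library was expressed on Saccharomyces cerevisiae BJ5465 by galactose induction for 36–48 hours. The library was stained for 1 hour at 4 °C with 10% biotinylated, detergent-solubilized Sf9 membrane reagent and enriched with streptavidin microbeads before FACS. Low and high (top ~1%) gates were set on anti-HA fluorescence for expression and streptavidin fluorescence for reagent binding, and each polyreactivity label reflects the gate of origin.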

| Sequence | polyreactivity (PSR sort gate) |
| --- | --- |
| QVQLVESGGGLVQAGGSLRLSCAASGSIIDRYAMGWYRQAPGKERELVAAISYSGGRTYYADSVKGRFTISRDNAKNTVYLQMNSLKPEDTAVYYCAADSPYDEYDYWGQGTQVTVSS | high polyreactivity |
| QVQLVESGGGLVQAGGSLRLSCAASGRIFRQNVMGWYRQAPGKERELVAGISRSGSGTRYADSVKGRFTISRDNAKNTVYLQMNSLKPEDTAVYYCNTLVPFSTWRYGYWGQGTQVTVSS | high polyreactivity |
| QVQLVESGGGLVQAGGSLRLSCAASGSTSRVYAMGWYRQAPGKERELVAAINKSGTRTYYADSVKGRFTISRDNAKNTVYLQMNSLKPEDTAVYYCAADQGTYGYGGFYYWGQGTQVTVSS | high polyreactivity |
| QLQLVESGGGLVQAGGSLRLSCAASGFTFYAYAMGWYRQAPGKERELVAAINSGGGSRTYYADSVKGRFTISRDNAKNTVYLQMNCLKPEDTAVYYCAARVYGVDGYGYWGQGTEVTVSS | high polyreactivity |
| QVQLVESGRGLVQAGGSLRLSCAASGSTFRYYAMGWYRQAPGKERELVASITRGASTNYADSVKGRFTISRDNAKNTVYLQMNSLKPEDTAVYYCAADNYCHTFGGTDLRDDYWGQGTQVTVSS | low polyreactivity |
| QVQLVESGGGLVQAGGSLRLSCAASGSIYYGYAMGWYRQAPGKERELVAAISSSGGSTYYADSVKGRFTISRDNAKNTVYLQMNSLKPEDTAVYYCAATRRKAYLYPSDYWGQGTQVTVSS | high polyreactivity |
| QVQLVESGGGLVQAGGSLRLSCAASGSIFVGNAMGWYRQAPAKERELVDTISWSGGSTYYADSVKGRFTISRDNAKNTVYVQMTSLKPEDTAVYYCAKTPYRRYRYGCYTYRTYDYWGHGTQVTVSS | low polyreactivity |
| QVQLVESGGGLVQAGGSLRLSCAASGRTLSANAMGWYRQAPGKERELVATNSTRGGRTYYADSVKGRFTISRDNAKNTVYLQMNSLKPEDTAVYYCAVTIRAKYTLKEDYWGQGTQVTVSS | low polyreactivity |
| QVQLVESGGGLVQAGGSLRLSCAASGRTFSVYAMGWYRQAPGKERELVARIRSGGSTYYADSVKGRFTISRDNAKNTVYLQMNRLKPEDTAVYYCATQHYGPSSNARGVYRYYYWGHGTQVTVSS | high polyreactivity |
| QVQLVESGGGLVQAGGSLRLSCAASGRTFQDNAMVWYRQAPGKEREFVAAINNSGGNTYYADSVKGRFTISRDNAKNTVYLQMNSLKPEDTAVYYCNARHTWHQTYDYWGQGTQVTVSS | low polyreactivity |
| QVQLVESGGGLVQAGGSLRLTCAASGLISTPNALGWYRQAPGKEREFVASISSRGGSTYYADSVKGRFTISRDNAMNTVYLQMNSLKPEDTAVYYCAADAYREFYYEYYYWGQGTQVTVSS | low polyreactivity |
| QVQLVESGGGLVQAGGSLRLSCAASGSTFYFYAMGWYRQAPGKERELVAVISSGGRTYYADSVKGRFTISRDNAKNTVYLQMNSLKPEDTAVYYCAASWPSSLTYYYWGQGTQVTVSS | low polyreactivity |
| QVQLVESGGGLVQAGGSLRLSCAASGSIFRYNAMGWYRQAPGKERELVAAISTSGGSTYYADSVKGRFTISRDNAKNTVYLQMNSLKPEDTAVYYCNKLRNSDSRGIVWYGYWGQGTQVTVSS | high polyreactivity |
| QVQLVESGGGLVQAGGSLRLSCAASGSIFGRNAMGWYRQAPGREREFVATITSRGGRTYYADSVKGRFTISRDNAKNTVYLQMNSLKPEDTAVYYCAADTYISTLKKYRLGDYWGQGTQVTVSS | low polyreactivity |
| QVQLVESGGGLVQAGGSLRLSCAASGIISGDYAMGWYRQAPGKERELVARITSGDSTNYADSVKGRFTISRDNAKNTVYLQMNSLNPEDTAVYYCAADRVWAYWTYGYWGQGTQVTVSS | low polyreactivity |
| QVQLVESGGGLVQAGGSLRLSCAASGSIFESYVMGWYRQAPGKERELVAAISYTGDDTYYADSVKGRFTISRDNAKNTVYLQMNSLKPEDTAVYYCNADNYYYYPWYVRALDSWGQGTQVTVSS | low polyreactivity |
| QVQLVESGGGLVQAGGSLRLSCAASGSIFSPNAMGWYRQATGKERELVAAISWTGVSTHYADSVKGRFTISRDNAKNTDYLHMNSLKPEDTAVYYCKYRFYRYPKYGYWGQGTQVTVSS | high polyreactivity |
| QVQLVESGGGLVQAGGSLRLSCAASGSIFKTNAMGWYRQAPGKERELVAGISNGGSTNYADSVKGRFTISRDNAKNTVYLQMNSLKPEDTAVYYCAKKGYASRYFIYDYWGQGTQVTVSS | low polyreactivity |
| QVQLVESGGGLVQAGGSLRLSCAASGRIFSRNAMGWYRQAPGKERELVAAISRSGTSTYYADSVKGRFTISRDNAKNTVYLQMNSLKPEDTAVYYCAAYPYYDRDYWGQGTQVTVSS | low polyreactivity |
| QVQLVESGGGLDQAGGSLRLSCAASGRTIRYYTMGWYRQAPGTERELVATIRRGGTTYYADSVKGRFTISRDNAKNTVYLQMNSLKPEDTAVYYCAKESLYQYDYWGQGTQVTVSS | low polyreactivity |
| QVQLVESGGGLVQAGGRLRLSCAASGSIFRRYAMGWYRQAPGKERELVAAISSKGGSTYYADSVKGRFTISRDNAKNTVYLQMNSLKPEDTAVYYCNAQLVHYRFSSVFTYTIDDYWGQGTQVTVSS | high polyreactivity |
| QVQLVESGGGLVQAGGSLRLSCAASGRTFSHNAMGWYRQAPGKERELVAAISRGGGTNYADSVKGRFTISRDNAKNTVYLQMNSLKPEDTAVYYCAAAGYDSNGRYYYWGQGTQVTVSS | high polyreactivity |
| QVQIVESGGGIVQAGGSLRLSCAASGLTFHQYTMGWYRQAPGKERELVAAISSGGSTNYADSVKGRFTISRDNAKNTVFLQMNSLKPEDTAVYYCAADKYYFAYDYWGQGTQVNVSS | low polyreactivity |
| QVQLVESGGGLVQAGGSLRISCAASGFICPQNTMGWYRQAPGTERELVAAITSCGSTYYADSVKGRFTISRDNGKNTVYLQMNSLKPEDTAVYYCAARPYGNWTYGYWGQGTQVTVSS | low polyreactivity |
| QVQLVESGGGLVQAGGSLRLSCAASGSTFRGYAMGWYRQAPGKERELVAAITYISDSTYYADSVKGRFTLSRDNAKNTVYLQMNSLKPEDTAVYYCNAYYDGDWRYTSQETGDHWGQGTQVTVSS | low polyreactivity |
| QVQLVESGGGLVQAGGSLRLSCAASGSTFYGYAMGWYRQAPGKERELVAAITRSGGSTYYADSVKGRFTISRDNAKNTVYLQMNSLIPEDTEVYYCNKDGYKGGVGYDYWGQGTQVTVSS | high polyreactivity |
| QVQLVESGGGLVQAGGSLRLSCAASGRIFYIYTMGWYRQAPGKEREFVAGINWNGGSTYYADSVKGRFTISRDNAKNTVYLQMNSLKPEDTAVYYCNADQYWDRYYYWGQGTQVTVSS | low polyreactivity |
| QVQHEESRRGLVQAGVSLRLRCAASGYTFRVYLMGCYRQAPGKERELVAAITYSGGRTYYADSVKGRFTISRDNAKNTVYLQMNSLKPVDTAVYYCAAERPWYGRDRGFDYWGQGTQVTVSS | high polyreactivity |
| QVQLVESGGGLVQAGGSLRLSCAASGRTFRYYAMGWYRQAPGKERELVARISWRGDSTRYADSVKGRFTISRDNAKNTVYVQMNSLKPEDTAVYYCAADTRFLVGPDKYGYWGQGTQVTESS | high polyreactivity |
| QVQLVESGGGLVQAGGSLRLSCAASGNTFYGYAMGWYRQAPGKERDLVATITGSGGDTYYADSVKGRFTISRDNAKNTVYLKMNSLKPEDTAVYYCNAVEYYGGYPGTQYYYLAYNYWGQGTQVTVSS | low polyreactivity |
